Assay results from patent publication US20190023771A1 (MERZ PHARMA, published 2019).

Target: T1, non-cleaved SNAP-25206 (UniProt P60880 1-206)
T1 construct: range 1-206; also called SNAP-25206 uncleaved substrate
Assay: ELISA and Western blots

T1 sequence (P60880 whole entry): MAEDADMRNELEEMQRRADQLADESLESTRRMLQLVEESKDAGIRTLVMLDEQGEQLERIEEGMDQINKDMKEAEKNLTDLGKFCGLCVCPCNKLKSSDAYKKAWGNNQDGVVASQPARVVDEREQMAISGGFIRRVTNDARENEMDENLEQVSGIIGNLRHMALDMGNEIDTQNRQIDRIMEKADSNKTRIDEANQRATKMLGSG

B1: mouse monoclonal antibody produced by hybridoma pCNEI 32-7-1, 3614-000 (antibody, V domains shown)
VH: EVQLVESGGGLVQPKGSLKLSCAASGYTFNTYAVNWVRQAPGKGLEWVARIRSKSYNYVTYYADSVKDRFTISRDDSQSMLYLQMNNLKTEDTAMYYCVKGNGNYVSFAYWGQGTLVTVSA
VL: QLVLTQSSSASFSLGASAKLTCTLSSQHNTYTIEWYQQQPLKPPKYVMELKKDGSHSTGDGIPDRFSGSSSGADRYLSISNIQPEDEAIYICGVGDTIKEQFVYVFGGGTKVTVL
notes: also called monoclonal antibody of the invention; DSM ACC3261
  binding result: no binding
